The results in this text go back to patent US20220242962A1 (APTEVO RESEARCH AND DEVELOPMENT, published 2022).

Broadly, the EC50 is the midpoint of the concentration-response curve. Lower therefore signals a more potent agent. One may read the EC50 (read off the curve) as the concentration needed to bring the measured effect to its halfway point. The low end stands for greater potency, the high end for weaker potency. One may read the Kd as the equilibrium constant for the complex coming apart. By koff is commonly meant the first-order rate constant of dissociation. Lower therefore signals a long-lived complex. As a reminder, the kon is the second-order rate constant of association. Read a low kon as slower complex formation.

Residue numbers refer to the chain shown, from its start. Names and notes keep the numbering of the source.

Assay [1] deals with T1, Full-length Human 4-1BB (human, UniProt Q07011 24-255).
T1 construct: also called FOB005; CD137
T1 sequence (Q07011 24-255): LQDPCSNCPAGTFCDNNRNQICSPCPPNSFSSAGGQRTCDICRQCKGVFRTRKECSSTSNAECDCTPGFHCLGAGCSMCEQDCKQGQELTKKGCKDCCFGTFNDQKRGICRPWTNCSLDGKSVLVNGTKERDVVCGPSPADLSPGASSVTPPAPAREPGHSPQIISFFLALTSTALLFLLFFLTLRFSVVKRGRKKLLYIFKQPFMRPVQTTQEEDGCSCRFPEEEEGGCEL
As to the kind of experiment: flow cytometry, Jurkat cells expressing human 4-1BB. The protocol:
(§1) Serial dilutions of ADAPTIR™ constructs were incubated with cells transfected with human or cynomolgus ECD and subsequently labelled with a fluorescently-conjugated goat-α-human Fc secondary antibody. […] (See Example 16.)
A general note: In flow cytometry, cells or beads pass a laser one at a time.

Assay [2] has as its target T2, Full-length Cyno OX40 (cynomolgus monkey, UniProt P43489 29-277 (human entry)).
T2 construct: on CHO-K1SV cells; also called OXF004; cynomolgus OX40
T2 chain: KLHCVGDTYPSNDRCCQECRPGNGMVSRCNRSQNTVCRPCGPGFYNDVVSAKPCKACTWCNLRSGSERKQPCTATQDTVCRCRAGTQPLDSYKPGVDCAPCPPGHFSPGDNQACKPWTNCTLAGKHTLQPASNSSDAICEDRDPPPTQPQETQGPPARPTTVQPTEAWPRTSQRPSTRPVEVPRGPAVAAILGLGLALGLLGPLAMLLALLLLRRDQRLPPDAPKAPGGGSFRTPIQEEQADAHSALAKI
The experiment in a line: flow cytometry on CHOK1SV cells transfected with cynomolgus OX40, goat anti-human Fc secondary antibody, MFI (Mean). The protocol:
as §1

For assay [3], the target named is T3, Human OX40 ECD-AFH (human).
T3 construct: ECD'; entry includes the C-terminal tags; also called OXF003; Human OX40 ECD-avi-flag-his
T3 chain: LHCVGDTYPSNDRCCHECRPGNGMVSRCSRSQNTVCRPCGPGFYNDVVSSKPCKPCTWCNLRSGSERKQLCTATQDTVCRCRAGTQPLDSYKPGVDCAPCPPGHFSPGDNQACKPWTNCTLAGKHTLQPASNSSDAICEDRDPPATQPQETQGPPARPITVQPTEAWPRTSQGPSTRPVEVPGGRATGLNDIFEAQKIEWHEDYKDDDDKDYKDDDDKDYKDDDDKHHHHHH
The experiment in a line: SPR (T200), construct captured, monomeric ECD as analyte. The protocol: (§2) Mouse anti-human IgG (GE, BR-1008-39) at 25 μg/ml in 10 mM sodium acetate pH 5.0 was immobilized at a density of ˜10,000 response units (RU) onto each flow cell of a CM5 research-grade sensor chip (GE) by standard amine coupling chemistry. Each binding protein at approximately 100 nM in HBS-EP+ with 0.2% BSA buffer was captured in a flow cell with the immobilized anti-human IgG at a flow rate of 10 μL/min for 20 seconds, leaving one flow cell surface unmodified as the reference. Using a single-cycle kinetics mode, five different concentrations of ECD were sequentially injected through each flow cell at 30 μL/min for 300 seconds followed by a 600 second dissociation period. Regeneration was achieved by injection of 3 M MgCl₂ at a flow rate of 30 μL/min for 30 seconds followed by HBS-EP+ with 0.2% BSA buffer stabilization for 1 min.
(§3) Sensorgrams obtained from kinetic SPR measurements were analyzed by the double subtraction method. The signal from the reference flow cell was subtracted from the analyte binding response obtained from flow cells with immobilized or captured ligands. Buffer reference responses were then averaged from multiple injections. The averaged buffer reference responses were then subtracted from analyte binding responses, and the final double-referenced data were analyzed with Biacore T200 Evaluation software (2.0, GE), globally fitting data to derive kinetic parameters. All sensorgrams were fitted using a simple one-to-one binding model.

The target in assay [4] is T4, Human 4-1BB ECD-AFH (human).
T4 construct: entry includes the tags; also called FOB003; HUMAN CD137 ECD-AVI-FLAG-HIS
T4 sequence (chain, as listed by the source limits assumed): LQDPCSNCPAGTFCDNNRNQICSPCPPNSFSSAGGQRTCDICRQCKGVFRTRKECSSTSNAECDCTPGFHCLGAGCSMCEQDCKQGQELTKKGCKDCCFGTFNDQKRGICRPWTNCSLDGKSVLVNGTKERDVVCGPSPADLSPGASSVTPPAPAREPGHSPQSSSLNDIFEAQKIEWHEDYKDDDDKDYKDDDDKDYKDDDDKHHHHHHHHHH
The description is as above. The protocol: as §2, §3

Assay [5] concerns the target T5, Fc gamma receptor RIIIB (human, UniProt O75015 17-200).
T5 construct: soluble SPR analyte
The experiment in a line: SPR, construct immobilized, receptor injected at 2 uM. The protocol:
Fcγ receptor binding to bispecific proteins was measured by Surface Plasmon Resonance on a Biacore 8K instrument at room temperature. Bispecific proteins with modified Fc regions to reduce binding to Fcγ receptors were directly immobilized on the surface of a CM5 sensor chip to a surface density of 4000 RU. A bispecific ADAPTIR™ protein with a wild type Fc was similarly immobilized to the surface as a positive control and used as a comparator to evaluate the reduction in binding resulting from changes incorporated into the Fc region amino acid sequence. Fcγ receptors (purchased from R&D Systems) were diluted to either 100 nM (FcγRI) or 2 μM (all other Fcγ receptors) in HBS-EP+ buffer before injecting over the surface of the prepared sensor chip at 30 μL/min for 60 seconds. Maximum RU values during association phase of each injection were used to compare the extent of binding of the modified Fc to wild type value and are reported in Table 17 below.
A general note: SPR reads the build-up and loss of mass on a sensor chip optically.

Assay [6] deals with T6, Recombinant FcRn/b2M protein (human, UniProt P55899 24-297; P61769 21-119, limits assumed).
T6 construct: also called hFcRn/b2M; neonatal Fc receptor
T6 sequence (P55899 24-297 limits assumed, chain 1 of 2): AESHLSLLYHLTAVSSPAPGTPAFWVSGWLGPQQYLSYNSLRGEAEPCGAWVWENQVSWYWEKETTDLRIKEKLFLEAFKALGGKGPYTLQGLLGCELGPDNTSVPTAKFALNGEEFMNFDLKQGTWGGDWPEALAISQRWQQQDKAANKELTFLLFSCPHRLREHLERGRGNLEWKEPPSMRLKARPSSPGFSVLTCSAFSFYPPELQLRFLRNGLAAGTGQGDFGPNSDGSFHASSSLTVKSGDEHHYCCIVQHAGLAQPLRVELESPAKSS
T6 sequence (P61769 21-119 limits assumed, chain 2 of 2): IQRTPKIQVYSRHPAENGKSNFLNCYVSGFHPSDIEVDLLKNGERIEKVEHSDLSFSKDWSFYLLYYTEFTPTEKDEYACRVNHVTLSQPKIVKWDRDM
As to the kind of experiment: SPR pH 6.0, FcRn/b2M immobilized, two-state reaction model. As for the experimental part:
Recombinant FcRn/b2M protein was generated via transient transfection of HEK-293 cells with a bi-cistronic vector containing the genes for both FcRn and […]. The complex was purified using IMAC chromatography and subsequently buffer exchanged into IMAC elution buffer after verifying purity of the IMAC eluate by analytical SEC. hFcRn/b2M at 10 μg/ml in 10 mM sodium acetate (pH 4.5) was immobilized on a CM5 chip by direct amine coupling chemistry to a level of ˜600 RU. A reference flow cell was left blank.
Different concentrations of the Fc variant protein (5-80 nM by 2-fold dilutions in pH 6.0 running buffer) including running buffer as blank were injected in randomized order at 30 μL/min for 180 seconds followed by a 120 second dissociation period.
Sensorgrams obtained from kinetic SPR measurements were analyzed by the double subtraction method. The signal from the reference flow cell was subtracted from the analyte binding response obtained from flow cell with immobilized ligands. Buffer reference was subtracted from analyte binding responses, and the final double-referenced data were analyzed with Biacore T200 Evaluation software (2.0, GE), globally fitting data to derive kinetic parameters. All sensorgrams were fitted using two-state reaction model, as described in Weirong Wang et al, DrugMetab Dispos.: 39(9): 1469-77 (2011).

T5 sequence (O75015 17-200): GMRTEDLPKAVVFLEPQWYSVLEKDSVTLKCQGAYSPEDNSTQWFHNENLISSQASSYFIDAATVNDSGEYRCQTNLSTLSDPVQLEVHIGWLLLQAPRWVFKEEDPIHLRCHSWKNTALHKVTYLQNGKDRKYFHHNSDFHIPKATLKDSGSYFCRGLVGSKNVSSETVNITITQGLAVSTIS

B1: FXX01066 (bispecific antibody)
chain: EVQLVQSGAEVKKPGASVKVSCKASGYTFTSYWMNWVRQAPGQGLEWMGNIYPSGGSTNYAQKFQGRVTMTVDTSTSTVYMELSSLRSEDTAVYYCASFSDGYYAYAMDYWGQGTLVTVSSGGGGSGGGGSGGGGSGGGGSEIVMTQSPATLSLSPGERATLSCRASQSVSSYLNWYQQKPGQAPRLLIYYASRRHTGIPARFSGSGSGTDFTLTISSLQPEDFAVYYCQQGYNLPYTFGQGTKVEIKEPKSSDKTHTCPPCPAPPAAAPSVFLFPPKPKDTLMISRTPEVTCVVVDVSHEDPEVKFNWYVDGVEVHNAKTKPREEQYNSTYRVVSVLTVLHQDWLNGKEYKCAVSNKALPAPIEKTISKAKGQPREPQVYTLPPSRDELTKNQVSLTCLVKGFYPSDIAVEWESNGQPENNYKTTPPVLDSDGSFFLYSKLTVDKSRWQQGNVFSCSVMHEALHNHYTQKSLSLSPGGGGSPSSYVLTQPPSVSVAPGQTARITCGGNNIGSKSVNWFQQKPGQAPVLVVYDDSGRPSGIPERFSGSTSGNTATLTISRVEAGDEADYYCQVWDSSSDHVVFGGGTKLTVLGGGGSGGGGSGGGGSGGGGSQVQLVESGGGVVQPGRSLRLSCAASGFTLSYYGMHWVRQAPGKGLEWVAAISHDGSDKYYADSVKGRFTISRDNSKNTLYLQMNSLRAEDTAVYYCSNDQFDPWGQGTLVTVSSR
notes: ADAPTIR scFv-Fc-scFv, anti-4-1BB (VH-VL) N-terminal, anti-OX40 C-terminal, PAA (del) Fc; also called FX01066
With B1, in assay [1], a half-maximal response (EC50) required 0.27 nM and the “Max MFI” value worked out at 4540 MFI. In addition, the concentration for a half-maximal effect (EC50 (read off the curve)) in assay [2] was roughly 2 nM. In assay [3], this molecule had a dissociation constant (Kd) of 0.4 nM, a koff of 0.00014 s⁻¹ and a kon of 380000 M⁻¹ s⁻¹. In assay [4], this molecule came in with an equilibrium dissociation constant (Kd) of 14 nM, a koff of 0.0044 s⁻¹ and an on-rate (kon) of 300000 M⁻¹ s⁻¹.

B2: FXX01115 (bispecific antibody)
chain: B1 chain with I541V, E543N, T690R
notes: ADAPTIR anti-4-1BB x anti-OX40, pI variant; PAA (del) Fc
Turning to B2, the “Max RU value during association” value in assay [5] came out at 0 RU.

B3: TSC 1005 (other)
chain: EPKSSDKTHTCPPCPAPPVAAPSVFLFPPKPKDTLMISRTPEVTCVVVDVSHEDPEVKFNWYVDGVEVHNAKTKPREEQYNSTYRVVSVLTVLHQDWLNGKEYKCAVSNKALPAPIEKTISKAKGQPREPQVYTLPPSRDELTKNQVSLTCLVKGFYPSDIAVEWESNGQPENNYKTTPPVLDSDGSFFLYSKLTVDKSRWQQGNVFSCSVMHEALHNHYTQKSLSLSPG
notes: IgG1 Fc with E233P, L234V, L235A, deletion of G236, G237A, K322A (EU); also called PVAdel TSC01005
In the case of B3, the Kd in assay [6] was determined as 20 nM.
